# Assay results: paper PMC10541619 (bioRxiv, 2023)
# B1: RADX-N (RADX 43-560, C-terminal truncation construct) (domain or fragment, human, UniProt Q6NSI4 43-560, looked up)
# chain: RSWIQKVLEQIMDSPRQCVTPSEVVPVTVLAVQRYLLEDEPRDTVPKPPLYCYDVTISDGVYQEKCYLDPSLNSLVYQNILKVGIQMRISRVSCLYNEKRIGQGILCIDNVHCGETSDSISLETPFRNRAHQEKPERPLRGGKSHYLALWNNEDPYGDIWLTDKQPEEHNFSDTKIISLSHLEMTWTNRRNFPALLVRILHKSKLRYYGKPDKKMIEPYQTFLEVADSSGTVSVIMWNALCPEWYKSLRVGLVLLLQDYSVKKSYPFRIQPVPVDPQIKLISTMEICLNLRDPPTNIIIIPEKQVKPEWRLPKLNHRFTTRSELDDMPENCICDVIGLLVFVGRVQRSKKKENREDFWSYRWIHIADGTSEQPFIVELFSTSQPEIFENIYPMAYFVCTQLKVVRNDNQVPKLLYLTTTNESGVFITGHRGQPYTYDAKVKNFIQWIRTKSDSGEQKNMVIGGYYPYPPVPETFSKYSSSIKVESLLTAISEVRKEIEDLQYREQKRIAIQGIITAIK
# Molecular target: the molecule itself
# Test: mass photometry
protein,measurement,value
B1,stoichiometry N,2
